Laboratory results from the supplement of paper PMC10567573.
± gives the standard deviation.

Test: protein stability index of a GFP-peptide fusion (GPS, HEK-293T) (PSI 1-6); higher = more stable
[1] = treatment: DMSO, c terminus: a fixed tail appended
[2] = treatment: MLN4924 1 uM, 8 h, c terminus: a fixed tail appended
[3] = treatment: DMSO, c terminus: native
[4] = treatment: MLN4924 1 uM, 8 h, c terminus: native
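Note: 24-mer peptide tiles fused after GFP, lentivirally expressed, FACS-sorted into six equal bins by GFP/DsRed ratio, decoded by Illumina sequencing, PSI is the read-weighted mean bin number.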

Sequence	protein stability index [1]	protein stability index [2]	protein stability index [3]	protein stability index [4]
EFRAHRAVLAASSPYFHDQVLLKG [ZBTB22]	2.57 ± 0.23	2.77 ± 0.4	–	–
EGGGGGSYFSGQGSDTGASLKLAS [JUNB]	4.67 ± 0.12	4.72 ± 0.12	–	–
EGQDLQHISNQKMPTGPPEDRLSL [DRICH1]	5.11 ± 0.37	5.03 ± 0.26	–	–
EHGLHTKYIHRMMQIEFIKQGSMN [TRAF3IP2]	2.3 ± 0.2	2.5 ± 0.26	–	–
EHVFDLILELYNIDSHLLLSVLPQ [PDS5B]	2.92 ± 0.47	2.85 ± 0.72	–	–
EHYRVQTQQTGTVRFDGYVIDGAT [FEM1B]	3.64 ± 0.3	3.88 ± 0.26	–	–
EIFRRHFRQLCYQETPGPREALTR [ZSCAN9]	2.51 ± 0.17	2.76 ± 0.24	–	–
EIGTSDQIVPEYQEDSDISSFFC [TRIB1]	–	–	3.38 ± 0.66	4.22 ± 0.82
EIKDKDQLVLRTKEAFDTIQEQKV [SASS6]	4.54 ± 0.25	4.53 ± 0.46	–	–
EIMLQYCFPRLDINVSKGINHLLK [PRIM1]	2.18 ± 0.67	2.5 ± 0.47	–	–
EIQREIGISNALHRLKLRLAIQEM [PPFIA4]	2.35 ± 0.72	2.3 ± 0.45	–	–
EKEDAEKENIEKDEDDVDQELANI [SRPK2]	5.62 ± 0.36	5.61 ± 0.31	–	–
EKEEDHAPEFIKVRENLRRIATLT [FAM107A]	2.58 ± 0.56	2.81 ± 0.6	–	–
EKQELQELNDRFANFIEKVRFLEQ [PRPH]	3.08 ± 0.17	3.29 ± 0.34	–	–
EKQKQPRWREGTKDSHDPLPSWAE [PBXIP1]	3.01 ± 0.51	3.18 ± 1.1	–	–
EKRLQEIEELEREAERKIIEENIT [SRPK2]	5.03 ± 0.33	5.39 ± 0.26	–	–
ELADARRALDDTARERAKLQIELG [LMNB1]	4.72 ± 0.075	4.69 ± 0.15	–	–
ELKCPVCGSFYREPIILPCSHNLC [TRIM9]	4.1 ± 0.29	4.12 ± 0.32	–	–
ELKKMVQQSDLGQYVTFLRSFSDK [ALG2]	2.21 ± 0.29	2.53 ± 0.42	–	–
ELMPSSRLWSLSYTKLPSSLQSTG [SLC25A39]	2.48 ± 0.13	2.47 ± 0.14	–	–
ELRDLQVSVESQQVQQVEVEATVK [PRPH]	4.88 ± 0.2	4.96 ± 0.14	–	–
ELRGAEPGRPARLDQLLDMPAAGL [SPSB4]	3.84 ± 0.46	4.02 ± 0.5	–	–

Sequence	protein stability index [1]	protein stability index [2]	protein stability index [3]	protein stability index [4]
ELSLVTLFRCIQNMPETLPNNSCY [TNFSF13B]	3.65 ± 1.3	2.94 ± 0.5	–	–
ELYGLALRFFKEKDGKAFHPTYEE [ACBD3]	2.13 ± 0.26	2.19 ± 0.35	–	–
EMPKSSDFLIHPPERSDLTLYLIV [PCDHGC5]	2.83 ± 0.47	2.72 ± 0.3	–	–
ENLKQQRSRREQFSRAPVSALPLA [STX5]	3.74 ± 0.37	3.75 ± 0.17	–	–
EPCQLPSESPGSLSEVLAQPQGAL [DNAAF3]	5.16 ± 0.22	5.13 ± 0.39	–	–
EPEKLYAMPDPAGPDGHLPAVATL [ESRRA]	4.65 ± 0.27	4.69 ± 0.23	–	–
EPLPVERDPAAGAAPFRFVARPVR [ZNF511]	2.77 ± 0.68	3.48 ± 0.87	–	–
EPPTEAASREENQAGPEATTSDPQ [PALM]	5.61 ± 0.26	5.49 ± 0.3	–	–
EQARAYAEKNCMTFFEVSPLCNFN [RAB40C]	2.49 ± 0.31	2.38 ± 0.15	–	–
ERAHKGEKPYGCSECGKAFPRKSE [ZNF649]	4.23 ± 0.12	4.7 ± 0.48	–	–
ERAPTATFHDSKHNIVHVHFDATR [WDFY2]	3.34 ± 0.17	3.33 ± 0.29	–	–
EREVRAKNGRVDSEDRRSRHCPYL [USP39]	4.39 ± 0.24	4.5 ± 0.32	–	–
ERFHGVGILGFNSAEWFITAVGAI [ACSBG2]	2.75 ± 1.1	2.78 ± 1.3	–	–
ERRELAVEQGERALERRRRALQEE [ZBED3]	5.34 ± 0.17	5.39 ± 0.31	–	–
ERSLRLQARYHDTPYKPPAGRAAA [MYORG]	3.55 ± 0.31	4.15 ± 0.11	–	–
ESENASLREKLRLREAEIARIRDE [LRRC45]	5.26 ± 0.17	5.11 ± 0.11	–	–
ESLKEELLSLKQNHEQEVNTLRCQ [KRT33B]	4.91 ± 0.099	4.78 ± 0.24	–	–
ESLMKDGDKNNDGRIDFDEFLKMM [TNNC2]	4.53 ± 0.1	4.55 ± 0.31	–	–
ESQVFSEKLATDTSTFEATSEGTL [ZNF232]	5.29 ± 0.13	5.15 ± 0.13	–	–
ETIPLTAEKLCIYTDNSIRPEELL [CCND1]	3.59 ± 0.41	3.94 ± 0.34	–	–
ETKLHLLRQEMVNLRATDVRLMRQ [LURAP1L]	2.96 ± 0.34	3.17 ± 0.16	–	–
ETSYQQREERLRRENEELSARYLS [FBF1]	4.79 ± 0.2	4.89 ± 0.17	–	–

Sequence	protein stability index [1]	protein stability index [2]	protein stability index [3]	protein stability index [4]
EVASNTEMIQTSKTEITDLRRTMQ [KRT15]	3.89 ± 0.21	4.27 ± 0.32	–	–
EVFIEWGISAKVFGATTNYGKDIV [ZBED1]	2.35 ± 0.64	2.44 ± 0.3	–	–
EVHFLHEESILERVQQHIESKLLG [MLH1]	2.98 ± 0.19	3.19 ± 0.24	–	–
EVTASQEARGLRLSDLEDLEEEEE [IRX6]	5.73 ± 0.34	5.64 ± 0.14	–	–
EYFFDRNRPSFDAILYYYQSGGRL [KCNA1]	2.52 ± 0.43	2.18 ± 0.29	–	–
EYQLNDSAAYYLNDLDRIAQPNYI [GNAI1]	2.61 ± 0.15	2.79 ± 0.49	–	–
FDSPSLCSSSTRSVLKRPERSQEE [CDC25A]	5.04 ± 0.31	5.12 ± 0.16	–	–
FEYPESSGPARVIAIVSVMVILIS [KCNA1]	2.82 ± 0.47	2.87 ± 0.48	–	–
FFIESCGAQVPVEGSRRETSITV	–	–	2.56 ± 0.97	2.29 ± 0.36
FGGVDGLLAGGEKATMQNLNDRLA [KRT17]	3.5 ± 0.32	3.69 ± 0.26	–	–
FIENNVSKLSLLLNDISRKSEGLS [TRIP13]	2.39 ± 0.35	2.33 ± 0.26	–	–
FKKGNRYIRCQKEVGKSFERHKLK [SMG5]	2.75 ± 0.23	2.85 ± 0.14	–	–
FKKTAYELLDEKLLARGTMQPFNY [FEM1A]	2.37 ± 0.46	2.61 ± 0.17	–	–
FKTIEELRDKIMATTIDNSRVILE [KRT15]	2.54 ± 0.28	2.65 ± 0.26	–	–
FLDERLYCESHAKARVKPPEGYDV [PDLIM4]	2.78 ± 0.8	3.23 ± 0.93	–	–
FLESQGIELNPPEKMALDPYTELR [EFHC1]	3.79 ± 0.41	3.89 ± 0.35	–	–
FLFPIDISLVKREHDFLDRDAIEA [DLC1]	2.66 ± 0.57	2.72 ± 0.31	–	–
FLQNAKTLLKKISEASKAFQMEKI [TRIM55]	3 ± 0.65	2.77 ± 0.42	–	–
FLRSLRQMKQKVQSLYQEVFGRLR [NFE2L1]	2.41 ± 0.59	1.7 ± 0.43	–	–
FLSFSMYQSFVQFLQYYYQSGCLY [TMEM120A]	3.02 ± 0.39	3.54 ± 0.45	–	–
FMEMNQKLFDDCTQQFKAEKLKEK [PPP2R5C]	4.26 ± 0.31	4.43 ± 0.28	–	–
